We go through two substances from PMC11952670.

Assay [1] addresses C-terminal domain of F-BclA (F-BclA-CTD) (Bacillus thuringiensis subsp. kurstaki). The assay can be described thus: crystal structure; F-BclA-CTD; 1M LiCl, 0.1M citrate pH 4.0, 20% (w/v) PEG 6000; P321.
In assay [2] the target is ExsF, first 23 residues replaced by a 6xHis tag (B. paranthracis). The assay can be described thus: crystal structure; co-crystallisation of 6xHis-ExsF with the synthetic F-Anchor peptide; 5% v/v T-mate pH 7, 0.1 M sodium cacodylate pH 5.3, 15% v/v PEG smear broad, 10% v/v ethylene glycol; 1.92 Å, P21.

As for “C-terminal domain of F-BclA (F-BclA-CTD) (domain or fragment)”, in assay [1], the stoichiometry N (usually the number of molecules, sites or subunits per partner or assembly) came out at 3.

“ExsF, first 23 residues replaced by a 6xHis tag (domain or fragment)” had a stoichiometry N in assay [2] of 3.
